Data from the supplement of paper PMC5998384.

Assays:
HeLa Kyoto [1] = assay: solubility in G1/S (NP-40 vs SDS abundance) (log2 ratio); higher = more soluble; settings: cell cycle stage: G1/S
HeLa Kyoto [2] = assay: solubility change mitosis vs G1/S (difference of NP-40 vs SDS log2 ratios) (log2 ratio difference); higher = more soluble in mitosis
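For solubility change mitosis vs G1/S (difference of NP-40 vs SDS log2 ratios) in this document: synchronized HeLa Kyoto cells (double thymidine block for G1/S, nocodazole release for mitosis), protein amounts in NP-40 versus SDS lysates quantified by mass spectrometry, three biological replicates.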
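For solubility in G1/S (NP-40 vs SDS abundance) in this document: HeLa Kyoto cells arrested at G1/S by double thymidine block, proteins quantified by TMT10plex mass spectrometry in mild NP-40 versus SDS extracts, three biological replicates.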

Chain of STK25 (chain, as listed by the source): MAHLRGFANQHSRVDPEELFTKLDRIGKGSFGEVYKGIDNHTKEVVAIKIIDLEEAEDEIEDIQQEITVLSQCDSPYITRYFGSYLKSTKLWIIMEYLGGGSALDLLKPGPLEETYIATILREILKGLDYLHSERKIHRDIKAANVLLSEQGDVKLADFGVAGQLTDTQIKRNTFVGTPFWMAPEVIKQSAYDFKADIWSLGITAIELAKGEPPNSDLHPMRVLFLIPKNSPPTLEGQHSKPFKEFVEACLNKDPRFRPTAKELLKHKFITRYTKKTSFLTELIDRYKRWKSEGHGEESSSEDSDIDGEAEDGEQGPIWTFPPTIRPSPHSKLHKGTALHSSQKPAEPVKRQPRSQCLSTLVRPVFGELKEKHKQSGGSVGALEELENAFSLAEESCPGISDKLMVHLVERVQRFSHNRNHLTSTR

Row | Substance | solubility in G1/S (log2) (HeLa Kyoto [1]) | solubility change mitosis (log2) (HeLa Kyoto [2])
1 | MIMNKMKNFKRRFSLSVPRTETIEESLAEFTEQFNQLHNRRNENLQLGPLGRDPPQECSTFSPTDSGEEPGQLSPGVQFQRRQNQRRFSMEDVSKRLSLPMDIRLPQEFLQKLQMESPDLPKPLSRMSRRASLSDIGFGKLETYVKLDKLGEGTYATVFKGRSKLTENLVALKEIRLEHEEGAPCTAIREVSLLKNLKHANIVTLHDLIHTDRSLTLVFEYLDSDLKQYLDHCGNLMSMHNVKIFMFQLLRGLAYCHHRKILHRDLKPQNLLINERGELKLADFGLARAKSVPTKTYSNEVVTLWYRPPDVLLGSTEYSTPIDMWGVGCIHYEMATGRPLFPGSTVKEELHLIFRLLGTPTEETWPGVTAFSEFRTYSFPCYLPQPLINHAPRLDTDGIHLLSSLLLYESKSRMSAEAALSHSYFRSLGERVHQLEDTASIFSLKEIQLQKDPGYRGLAFQQPGRGKNRRQSIF [CDK18] | 0.0482 | -0.00432
2 | MSGGGTETPVGCEAAPGGGSKKRDSLGTAGSAHLIIKDLGEIHSRLLDHRPVIQGETRYFVKEFEEKRGLREMRVLENLKNMIHETNEHTLPKCRDTMRDSLSQVLQRLQAANDSVCRLQQREQERKKIHSDHLVASEKQHMLQWDNFMKEQPNKRAEVDEEHRKAMERLKEQYAEMEKDLAKFSTF [BLOC1S5] | 0.438 | -0.0624
3 | STK25 | 0.291 | -0.12
4 | MAPPAGGAAAAASDLGSAAVLLAVHAAVRPLGAGPDAEAQLRRLQLSADPERPGRFRLELLGAGPGAVNLEWPLESVSYTIRGPTQHELQPPPGGPGTLSLHFLNPQEAQRWAVLVRGATVEGQNGSKSNSPPALGPEACPVSLPSPPEASTLKGPPPEADLPRSPGNLTEREELAGSLARAIAGGDEKGAAQVAAVLAQHRVALSVQLQEACFPPGPIRLQVTLEDAASAASAASSAHVALQVHPHCTVAALQEQVFSELGFPPAVQRWVIGRCLCVPERSLASYGVRQDGDPAFLYLLSAPREAPATGPSPQHPQKMDGELGRLFPPSLGLPPGPQPAASSLPSPLQPSWSCPSCTFINAPDRPGCEMCSTQRPCTWDPLAAAST [SHARPIN] | 0.196 | -0.0725
5 | MNGPADGEVDYKKKYRNLKRKLKFLIYEHECFQEELRKAQRKLLKVSRDKSFLLDRLLQYENVDEDSSDSDATASSDNSETEGTPKLSDTPAPKRKRSPPLGGAPSPSSLSLPPSTGFPLQASGVPSPYLSSLASSRYPPFPSDYLALQLPEPSPLRPKREKRPRLPRKLKMAVGPPDCPVGGPLTFPGRGSGAGVGTTLTPLPPPKMPPPTILSTVPRQMFSDAGSGDDALDGDDDLVIDIPE [INO80E] | 0.135 | 0.288
6 | MNQFGPSALINLSNFSSIKPEPASTPPQGSMANSTAVVKIPGTPGAGGRLSPENNQVLTKKKLQDLVREVDPNEQLDEDVEEMLLQIADDFIESVVTAACQLARHRKSSTLEVKDVQLHLERQWNMWIPGFGSEEIRPYKKACTTEAHKQRMALIRKTTKK [TAF12] | -0.0469 | 0.151
7 | MSTSSLRRQMKNIVHNYSEAEIKVREATSNDPWGPSSSLMSEIADLTYNVVAFSEIMSMIWKRLNDHGKNWRHVYKAMTLMEYLIKTGSERVSQQCKENMYAVQTLKDFQYVDRDGKDQGVNVREKAKQLVALLRDEDRLREERAHALKTKEKLAQTATASSAAVGSGPPPEAEQAWPQSSGEEELQLQLALAMSKEEADQPPSCGPEDDAQLQLALSLSREEHDKEERIRRGDDLRLQMAIEESKRETGGKEESSLMDLADVFTAPAPAPTTDPWGGPAPMAAAVPTAAPTSDPWGGPPVPPAADPWGGPAPTPASGDPWRPAAPAGPSVDPWGGTPAPAAGEGPTPDPWGSSDGGVPVSGPSASDPWTPAPAFSDPWGGSPAKPSTNGTTAAGGFDTEPDEFSDFDRLRTALPTSGSSAGELELLAGEVPARSPGAFDMSGVRGSLAEAVGSPPPAATPTPTPPTRKTPESFLGPNAALVDLDSLVSRPGPTPPGAKASNPFLPGGGPATGPSVTNPFQPAPPATLTLNQLRLSPVPPVPGAPPTYISPLGGGPGLPPMMPPGPPAPNTNPFLL [EPN1] | 0.197 | 0.235
8 | MAHEAMEYDVQVQLNHAEQQPAPAGMASSQGGPALLQPVPADVVSSQGVPSILQPAPAEVISSQATPPLLQPAPQLSVDLTEVEVLGEDTVENINPRTSEQHRQGSDGNHTIPASSLHSMTNFISGLQRLHGMLEFLRPSSSNHSVGPMRTRRRVSASRRARAGGSQRTDSARLRAPLDAYFQVSRTQPDLPATTYDSETRNPVSEELQVSSSSDSDSDSSAEYGGVVDQAEESGAVILEEQLAGVSAEQEVTCIDGGKTLPKQPSPQKSEPLLPSASMDEEEGDTCTICLEQWTNAGDHRLSALRCGHLFGYRCISTWLKGQVRKCPQCNKKARHSDIVVLYARTLRALDTSEQERMKSSLLKEQMLRKQAELESAQCRLQLQVLTDKCTRLQRRVQDLQKLTSHQSQNLQQPRGSQAWVLSCSPSSQGQHKHKYHFQKTFTVSQAGNCRIMAYCDALSCLVISQPSPQASFLPGFGVKMLSTANMKSSQYIPMHGKQIRGLAFSSYLRGLLLSASLDNTIKLTSLETNTVVQTYNAGRPVWSCCWCLDEANYIYAGLANGSILVYDVRNTSSHVQELVAQKARCPLVSLSYMPRAASAAFPYGGVLAGTLEDASFWEQKMDFSHWPHVLPLEPGGCIDFQTENSSRHCLVTYRPDKNHTTIRSVLMEMSYRLDDTGNPICSCQPVHTFFGGPTCKLLTKNAIFQSPENDGNILVCTGDEAANSALLWDAASGSLLQDLQTDQPVLDICPFEVNRNSYLATLTEKMVHIYKWE [RFWD3] | -0.0967 | -0.0684
9 | MGTSLSPNDPWPLNPLSIQQTTLLLLLSVLATVHVGQRLLRQRRRQLRSAPPGPFAWPLIGNAAAVGQAAHLSFARLARRYGDVFQIRLGSCPIVVLNGERAIHQALVQQGSAFADRPAFASFRVVSGGRSMAFGHYSEHWKVQRRAAHSMMRNFFTRQPRSRQVLEGHVLSEARELVALLVRGSADGAFLDPRPLTVVAVANVMSAVCFGCRYSHDDPEFRELLSHNEEFGRTVGAGSLVDVMPWLQYFPNPVRTVFREFEQLNRNFSNFILDKFLRHCESLRPGAAPRDMMDAFILSAEKKAAGDSHGGGARLDLENVPATITDIFGASQDTLSTALQWLLLLFTRYPDVQTRVQAELDQVVGRDRLPCMGDQPNLPYVLAFLYEAMRFSSFVPVTIPHATTANTSVLGYHIPKDTVVFVNQWSVNHDPLKWPNPENFDPARFLDKDGLINKDLTSRVMIFSVGKRRCIGEELSKMQLFLFISILAHQCDFRANPNEPAKMNFSYGLTIKPKSFKVNVTLRESMELLDSAVQNLQAKETCQ [CYP1B1] | -0.0639 | -0.171
